PMC10352297, “Determining the structure of the bacterial voltage-gated sodium channel NaChBac embedded in liposomes by cryo electron tomography and subtomogram averaging” (Scientific Reports, 2023)

Target: the molecule itself
Experiment: cryo-EM structure; cryo electron tomography and subtomogram averaging of NaChBac in proteoliposomes (E. coli polar lipid extract, lipid-to-protein 2:1 wt/wt); polarized membrane, [K+]in 150 mM, [K+]out 3 mM, 1 uM valinomycin, -100 mV; 25 mM HEPES pH 7.0; 3116 particles, C1, 16.3 A

B1: His6-GFP^A206K-NaChBac (natural protein, Bacillus halodurans, UniProt Q9KCR8 1-274, looked up)
chain: MKMEARQKQNSFTSKMQKIVNHRAFTFTVIALILFNALIVGIETYPRIYADHKWLFYRIDLVLLWIFTIEIAMRFLASNPKSAFFRSSWNWFDFLIVAAGHIFAGAQFVTVLRILRVLRVLRAISVVPSLRRLVDALVMTIPALGNILILMSIFFYIFAVIGTMLFQHVSPEYFGNLQLSLLTLFQVVTLESWASGVMRPIFAEVPWSWLYFVSFVLIGTFIIFNLFIGVIVNNVEKAELTDNEEDGEADGLKQEISALRKDVAELKSLLKQSK
notes: NaChBac, prokaryotic voltage-gated sodium channel from Bacillus halodurans; cDNA for full-length NaChBac in pET21a; the tagged subunit is 55 kDa; the channel without tags is about 120 kDa as a tetramer; also called his-GFP-NaChBac; his-tagged GFP^A206K-NaChBac; source: E. coli C41(DE3), purified (Ni-NTA, SEC in DDM), reconstituted into liposomes of E. coli polar lipid extract; not shown: His6, …
- stoichiometry N: 4
